Experimental data taken from publication PMC12416549 (2024).
Positions count from the first letter of the chain named. Names may count otherwise.

B1: A47M (designed binder)
chain: SMEEEVEKAAKEYEKKKKEAIEKHLEKLKAKDKEAAERFLKELEEAMKEYAKDEAKTMSEEEAKRRAKKYKEKVLLSELSEEEQKEIKEAEEKLVRTILKYVEEAAK
B2: M58D (designed binder)
chain: B1 chain with M47A, M58D
B3: L75C (designed binder)
chain: B1 chain with M47A, L75C
B4: K100Y (designed binder)
chain: B1 chain with M47A, K100Y
B5: L43Q (designed binder)
chain: B1 chain with L43Q, M47A
B6: T97A (designed binder)
chain: B1 chain with M47A, T97A
B7: D53N (designed binder)
chain: B1 chain with M47A, D53N
B8: A9L (designed binder)
chain: B1 chain with A9L, M47A
B9: A55G (designed binder)
chain: B1 chain with M47A, A55G
B10: K27A (designed binder)
chain: B1 chain with K27A, M47A
B11: K23E (designed binder)
chain: B1 chain with K23E, M47A
B12: A47Y (designed binder)
chain: B1 chain with M47Y
B13: E103P (designed binder)
chain: B1 chain with M47A, E103P
B14: A46I (designed binder)
chain: B1 chain with A46I, M47A
B15: E62N (designed binder)
chain: B1 chain with M47A, E62N
B16: A36G (designed binder)
chain: B1 chain with A36G, M47A
B17: E86A (designed binder)
chain: B1 chain with M47A, E86A
B18: E61L (designed binder)
chain: B1 chain with M47A, E61L
B19: D53C (designed binder)
chain: B1 chain with M47A, D53C
B20: K18Y (designed binder)
chain: B1 chain with K18Y, M47A
B21: A30H (designed binder)
chain: B1 chain with A30H, M47A
B22: L43G (designed binder)
chain: B1 chain with L43G, M47A
B23: S80F (designed binder)
chain: B1 chain with M47A, S80F
B24: E14F (designed binder)
chain: B1 chain with E14F, M47A
B25: E92N (designed binder)
chain: B1 chain with M47A, E92N
B26: E86D (designed binder)
chain: B1 chain with M47A, E86D
B27: V6M (designed binder)
chain: B1 chain with V6M, M47A
B28: L79D (designed binder)
chain: B1 chain with M47A, L79D
B29: K100G (designed binder)
chain: B1 chain with M47A, K100G
B30: E5Y (designed binder)
chain: B1 chain with E5Y, M47A
B31: I98A (designed binder)
chain: B1 chain with M47A, I98A
B32: E19H (designed binder)
chain: B1 chain with E19H, M47A
B33: E92P (designed binder)
chain: B1 chain with M47A, E92P
B34: E44W (designed binder)
chain: B1 chain with E44W, M47A
B35: E42T (designed binder)
chain: B1 chain with E42T, M47A
B36: E82S (designed binder)
chain: B1 chain with M47A, E82S
B37: I21C (designed binder)
chain: B1 chain with I21C, M47A
B38: A47R (designed binder)
chain: B1 chain with M47R
B39: K107N (designed binder)
chain: B1 chain with M47A, K107N
B40: M2W (designed binder)
chain: B1 chain with M2W, M47A
B41: E60S (designed binder)
chain: B1 chain with M47A, E60S
B42: L76M (designed binder)
chain: B1 chain with M47A, L76M
B43: H24R (designed binder)
chain: B1 chain with H24R, M47A
B44: K23M (designed binder)
chain: B1 chain with K23M, M47A
B45: V95K (designed binder)
chain: B1 chain with M47A, V95K
B46: K11S (designed binder)
chain: B1 chain with K11S, M47A
B47: L40Y (designed binder)
chain: B1 chain with L40Y, M47A
B48: E103N (designed binder)
chain: B1 chain with M47A, E103N
B49: E22H (designed binder)
chain: B1 chain with E22H, M47A
B50: T97E (designed binder)
chain: B1 chain with M47A, T97E
B51: A20I (designed binder)
chain: B1 chain with A20I, M47A
B52: E83P (designed binder)
chain: B1 chain with M47A, E83P
B53: K85T (designed binder)
chain: B1 chain with M47A, K85T
B54: S59Q (designed binder)
chain: B1 chain with M47A, S59Q
B55: K85R (designed binder)
chain: B1 chain with M47A, K85R
B56: K29R (designed binder)
chain: B1 chain with K29R, M47A
B57: E45Q (designed binder)
chain: B1 chain with E45Q, M47A
B58: E5T (designed binder)
chain: B1 chain with E5T, M47A
B59: K33I (designed binder)
chain: B1 chain with K33I, M47A

Target: T1, TNFR1 (Homo sapiens, UniProt P19438)
T1 chain: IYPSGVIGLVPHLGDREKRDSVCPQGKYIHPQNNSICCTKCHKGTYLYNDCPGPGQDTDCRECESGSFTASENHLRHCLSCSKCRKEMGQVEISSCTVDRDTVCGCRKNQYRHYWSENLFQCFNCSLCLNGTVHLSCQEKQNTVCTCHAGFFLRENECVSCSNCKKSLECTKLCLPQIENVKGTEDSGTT
Assay: yeast display SC50

Binder	apparent Kd (screen)
B1	0.446 nM
B2	22.2 nM
B3	0.49 nM
B4	0.869 nM
B5	0.446 nM
B6	1.86 nM
B7	0.79 nM
B8	0.956 nM
B9	8.56 nM
B10	0.79 nM
B11	0.446 nM
B12	0.49 nM
B13	0.49 nM
B14	3 nM
B15	0.49 nM
B16	0.446 nM
B17	0.653 nM
B18	1.69 nM
B19	2.73 nM
B20	1.05 nM

Binder	apparent Kd (screen)
B21	0.869 nM
B22	1.4 nM
B23	2.73 nM
B24	29.5 nM
B25	1.05 nM
B26	0.49 nM
B27	2.73 nM
B28	16.7 nM
B29	0.277 nM
B30	1.54 nM
B31	1.69 nM
B32	0.49 nM
B33	7.78 nM
B34	3.3 nM
B35	9.41 nM
B36	0.49 nM
B37	0.49 nM
B38	0.49 nM
B39	1.54 nM
B40	0.446 nM

Binder	apparent Kd (screen)
B41	1.54 nM
B42	0.869 nM
B43	1.05 nM
B44	0.869 nM
B45	3.63 nM
B46	0.49 nM
B47	0.869 nM
B48	0.49 nM
B49	0.539 nM
B50	1.69 nM
B51	0.539 nM
B52	3.3 nM
B53	0.49 nM
B54	1.16 nM
B55	0.593 nM
B56	0.539 nM
B57	1.05 nM
B58	0.446 nM
B59	0.79 nM
